{"source": "paper PMC8184781", "about": "“A histone H3K4me1-specific binding protein is required for siRNA accumulation and DNA methylation at a subset of loci targeted by RNA-directed DNA methylation” (Nature Communications, 2021)", "test_in_all_cases": "ITC; Microcal PEAQ-ITC, 20 °C; protein about 0.8–0.12 mM (so in the source), peptide about 1.0–1.5 mM; 100 mM NaCl, 20 mM HEPES, 2 mM β-mercaptoethanol (pH 7.0 in the methods, [7.4] in the footnote of Supplementary Table 1)", "key": {"[1]": {"target": "RDM15 Tudor domain (residues 598-662) D645A (Arabidopsis thaliana)"}, "[2]": {"target": "RDM15 Tudor domain (residues 598-662) Q654A (Arabidopsis thaliana)"}, "[3]": {"target": "RDM15 Tudor domain (residues 598-662), wild type (Arabidopsis thaliana)"}}}
{"substance": "H3(1-15) K4me1 peptide", "values": [{"measurement": "Kd", "setting": "[1]", "result": 62.7, "unit": "µM"}, {"measurement": "stoichiometry N", "setting": "[1]", "result": 0.86}, {"measurement": "Kd", "setting": "[2]", "result": 60.8, "unit": "µM"}, {"measurement": "stoichiometry N", "setting": "[2]", "result": 1.08}, {"measurement": "stoichiometry N", "setting": "[3]", "result": 0.96}]}
{"substance": "H3K4me2 peptide", "values": [{"measurement": "Kd", "setting": "[3]", "result": 30.9, "unit": "µM"}, {"measurement": "stoichiometry N", "setting": "[3]", "result": 1.03}]}
{"substance": "H3K4me3 peptide", "values": [{"measurement": "Kd", "setting": "[3]", "result": 66.2, "unit": "µM"}, {"measurement": "stoichiometry N", "setting": "[3]", "result": 0.9}]}
